Measurements published in publication PMC11406360, “The enzymatic oxygen sensor cysteamine dioxygenase binds its protein substrates through their N-termini” (The Journal of Biological Chemistry, 2024).

B1: native RGS5 peptide (first 14 amino acids of the methionine excised N terminus of RGS5) [human] / 2-aminoethanethiol (cysteamine) dioxygenase (ADO), biotinylated, for SPR [modified: biotin (N terminally biotinylated; 0.2 mM biotin added at … (parent complex)
chain 1: CKGLAALPHSCLER
chain 2: MPRDNMASLIQRIARQACLTFRGSGGGRGASDRDAASGPEAPMQPGFPENLSKLKSLLTQLRAEDLNIAPRKATLQPLPPNLPPVTYMHIYETDGFSLGVFLLKSGTSIPLHDHPGMHGMLKVLYGTVRISCMDKLDAGGGQRPRALPPEQQFEPPLQPREREAVRPGVLRSRAEYTEASGPCILTPHRDNLHQIDAVEGPAAFLDILAPPYDPDDGRDCHYYRVLEPVRPKEASSSACDLPREVWLLETPQADDFWCEGEPYPGPKVFP

Variants of: B1
Assay: SPR; parent: 290 nM

Variant | Kd [nM]
chain 1 L7A | 310
chain 1 L4A | 220
chain 1 H9A | 240
chain 1 E13A | 260
chain 1 C11A | 300

The next lines start with the values.

Kd [nM] | Variant
250 | chain 1 P8A
260 | chain 1 L12A
350 | chain 1 S10A
210 | chain 1 R14A
